Measured values published in the RNAGym collection of RNA variant scans (doi:10.7554/elife.90254).

B1: LINE1-full (parent)
chain: UACGUAGGUGGUUUUCCCCUGAUAGUGCUAAGGGGGCCUGGAAGUUUGGACUGGGCAGAGCUCAACACAGCGUGGCAAAGUGGCUGUGGCUAGACUGCCUCUCUGGAUUCCUCGUCACUCAGCAGGGCAUCUCUGAGAGAAAUGCC

Variants of: B1
Experiment: self-cleavage, relative activity (ratio to wild type); higher = more cleavage; in vitro, sequencing; the parent is a self-cleaving ribozyme

| Variant | self-cleavage |
| --- | --- |
| U14C A42G | 1.15 |
| G93A A94G | 0.09 |
| U108C U134G | 2.43 |
| A79G C90A | 0.04 |
| A59G A129U | 0.19 |
| A30U A50G | 2.04 |
| A67G U134C | 0.56 |
| C95U G135A | 0.17 |
| U29A U81A | 1.96 |
| U1C U130C | 1.04 |
| G105A | 1.43 |
| A65G U96C | 0.08 |
| A77U U104A | 0.58 |
| A57U G106U | 0.09 |
| C38U A64G | 0.17 |
| G21C | 0.69 |
| A92U A136G | 0.94 |
| A42U U112A | 1.15 |
| C38U A121G | 1.72 |
| A24U U96A | 0.07 |
| A57G U102G | 0.19 |
| U26C U46G | 1.62 |
| U13C A57G | 0.76 |
| A69G A138G | 0.56 |

| Variant | self-cleavage |
| --- | --- |
| U112C U130A | 1.59 |
| A67G G114C | 0.49 |
| U12C A43C | 1.45 |
| U15C G127U | 1.23 |
| U15A A94U | 0.25 |
| U62C A92U | 0.04 |
| A79G G86A | 0.09 |
| U130C U134C | 1.51 |
| A22U U102C | 1.06 |
| U112G G139A | 1.15 |
| G33U C90G | 0.07 |
| U52C A65U | 0.19 |
| A57G U100A | 0.3 |
| U52A A124G | 1.07 |
| U14C U73C | 1.62 |
| C19A U85A | 0.14 |
| G122U G125C | 2.14 |
| C56A U96C | 0.05 |
| G55A U104C | 1.02 |
| U20C A117C | 1.64 |
| C3U U15C | 0.45 |
| U23C A50G | 1.34 |
| U9A A140C | 1.06 |
| A124U G127A | 0.9 |

| Variant | self-cleavage |
| --- | --- |
| C37G A77U | 1.06 |
| U102C A142G | 1.53 |
| U29A C110U | 1.07 |
| U108C C113A | 1.45 |
| U100C U119C | 1.87 |
| A50G G144C | 0.83 |
| A43G A140U | 1.19 |
| U26A G126C | 1.42 |
| G32C U85C | 0.27 |
| C16A U96G | 0.08 |
| U45C G126U | 1.34 |
| A24U A107G | 2.24 |
| U39C A42G | 1.44 |
| U26A A43U | 0.89 |
| U132C C146U | 1.51 |
| U1C U96A | 0.09 |
| U15C A117U | 1.58 |
| A78G A141U | 1.66 |
| A57G U115C | 1.3 |
| U62C G139A | 0.03 |
| U9C G48C | 1.09 |
| U12C G55A | 0.64 |
| A42G A77G | 2.66 |
| U23C | 1.3 |

| Variant | self-cleavage |
| --- | --- |
| U85C U130A | 0.35 |
| G53U U62C | 0.08 |
| U85A A124C | 0.08 |
| C63U C128U | 0.23 |
| A64U A140G | 0.39 |
| A57U A117G | 0.09 |
| A50U G70C | 0 |
| U87A U104C | 0.11 |
| U20A G53A | 1.01 |
| G41C U104G | 1.58 |
| U9A A92U | 0.73 |
| U12C U108A | 1.25 |
| G10U A59U | 0.72 |
| G75C A138G | 1.01 |
| A43G A64G | 0.32 |
| A24G G139U | 2.56 |
| G7C A140G | 1.37 |
| G48A A136G | 1.62 |
| U20C A42G | 1.25 |
| U20C G32U | 0.94 |
| U46C A57C | 0.31 |
| U26A G144A | 1.03 |
| G11A U20C | 2.58 |
| U14A G72U | 1.32 |

| Variant | self-cleavage |
| --- | --- |
| C84A U91C | 0.13 |
| A107G G139U | 2.42 |
| G72A A140G | 1.16 |
| G11A U108C | 1.58 |
| C16U A129U | 1.36 |
| U102C A124U | 1.14 |
| U26C A42G | 1.06 |
| U12C U115C | 1.21 |
| A24U U45A | 0.82 |
| G35U G55U | 0.72 |
| U39C A141U | 2.2 |
| A64C A107G | 0.36 |
| U26C U104C | 0.84 |
| U47G A129U | 0.53 |
| A6U U9C | 0.36 |
| U46A A77G | 2.14 |
| U73C U134C | 1.87 |
| G105U U132C | 0 |
| G25A A77G | 0.92 |
| U96A G126A | 0.07 |
| G10A U26C | 0.95 |
| U23A A64C | 0.48 |
| U45C U109A | 1.5 |
| A78U U91C | 1.13 |

| Variant | self-cleavage |
| --- | --- |
| A79U U112A | 1.97 |
| C56U U85A | 0.04 |
| G7U A142G | 1.15 |
| A2G C66U | 0.4 |
| U12A A65C | 0.14 |
| U104G U130C | 0.75 |
| U5C U91G | 0 |
| U45A U115G | 1.17 |
| C17G | 0.91 |
| A78U U108C | 2.87 |
| A31U A124G | 1.09 |
| U15C U26A | 1.16 |
| C128A A141G | 1.01 |
| C71U U73C | 0.1 |
| U52C U85C | 0.31 |
| G33U A43G | 0.64 |
| A59U A124U | 0.68 |
| A129G G139A | 1.43 |
| G106A A121G | 1.78 |
| A138C U143A | 1.94 |
| A69G G82A | 0.68 |
| U9C C103U | 1.4 |
| A65G G127C | 0.06 |
| U26C U73A | 1.48 |

| Variant | self-cleavage |
| --- | --- |
| U91C C99A | 0.11 |
| C37U G40A | 0.68 |
| G122C A140G | 1.36 |
| A24G U73C | 1.68 |
| C38U A67U | 0.07 |
| A67G G93U | 0.11 |
| A43G U85C | 0.2 |
| U81C C95A | 0.03 |
| U20C U45G | 1.38 |
| A67C G72U | 0.06 |
| C18A A69C | 0.13 |
| U20A C51A | 0.82 |
| U15C U100C | 1.81 |
| U5G A141G | 0.49 |
| U104A A129C | 1.61 |
| G32A A64G | 0.24 |
| A30G U85A | 0.32 |
| A57G C66U | 0.05 |
| A67U A79U | 0.21 |
| U23A A138G | 0.76 |
| A77G U112A | 2.32 |
| A30U C101U | 1.35 |
| U9C U45C | 1.27 |
